The results in this text go back to US6833355 (HANSA MEDICAL, dated 2004).

To fix the notation:
B2: protein H of Streptococcus pyogenes, COOH-terminally truncated fragment expressed by and purified from E. coli (305 amino acids) (other)
chain: EGAKIDWQEEYKKLDEDNAKLVEVVETTSLENEKLKSENEENKKNLDKLSKENQGKLEKLELDYLKKLDHEHKEHQKEQQEQEERQKNQEQLERKYQREVEKRYQEQLQKQQQLETEKQISEASRKSLSRDLEASRAAKKDLEAEHQKLEAEHQKLKEDKQISDASRQGLSRDLEASRAAKKELEANHQKLEAEHQKLKEDKQISDASRQGLSRDLEASRAAKKELEANHQKLEAEAKALKEQLAKQAEELAKLRAGKASDSQTPDTKPGNKAVPGKGQAPQAGTKPNQNKAPMKETKRQLPSTG
notes: 42-346 is the same stretch counted from the first Met of the entry; Depending on the assay, protein H was coupled to CNBr-Sepharose, labelled with 125I (Bolton-Hunter), biotinylated or unlabelled; also called recombinant protein H; soluble protein H

Assay [1] addresses B2. Description: Affinity chromatography of the 35S-labelled in vitro translated peptide on protein H-Sepharose, then SDS-PAGE and autoradiography.
Assay [2] addresses actin from porcine heart (Sigma) (porcine, UniProt B6VNT8 3-377). Description: SPR (BIACORE X), protein H over immobilised actin; mean ± SD of three experiments.

B1: COOH-terminal fragment of NPM, in vitro translated and 35S-methionine-labelled (other)
chain: GSKVPQKKVKLAADEDDDDDDEEDDDEDDDDDDFDDEEAEEKAPVKKSIRDTPAKNAQKSNQNGKDSKPSSTPRSKGQESFKKQEKTPKTPKGPSSVEDIKAKMQASIEKGGSLPKVEAKFINYVKNCFRMTDQEAIQDLWQWRKSL
modifications: 35S-methionine label
notes: domain: COOH-terminal half; also called COOH-terminal peptide; COOH-terminal half of NPM
Take B1: the binding result in assay [1] is on record as “no binding”.

Consider B2, for which, in assay [2], the Ka amounted to 1.7e+06 M⁻¹; the affinity, expressed as Kd, was 600 nM; the koff came out at 0.0015 s⁻¹; the on-rate (kon) worked out at 2500 M⁻¹ s⁻¹.
